The source of these data is a protein production outcome set (Wang et al. 2014).

This data set in a line: label from the status in PepcDB records.
For “MALVSADSRIAELLTELHQLIKQTQEERSRSEHNLVNIQKTHERMQTENKISPYYRTKLRGLYTTAKADAEAECNILRKALDKIAEIKSLLEERRIAAKIAGLYNDSEPPRKTMRRGVLMTLLQQSAMTLPLWIGKPGDKPPPLCGAIPASGDYVARPGDKVAARVKAVDGDEQWILAEVVSYSHATNKYEVDDIDEEGKERHTLSRRRVIPLPQWKANPETDPEALFQKEQLVLALYPQTTCFYRALIHAPPQRPQDDYSVLFEDTSYADGYSPPLNVAQRYVVACKEPKKK”, the protein production result was “failed”.

As for “MAMRELSQLNRDSDGDEEVWVKHYSSNHQILLVGEGDFSFSHSLATLFGSASNICASSLDSYDVVVRKYKKARSNLKTLKRLGALLLHGVDATTLHFHPDLRYRRFDRVIFNFPHAGFHGRESDSSLIRKHRELVFGFFNGASRLLRANGEVHVSHKNKAPFSEWNLEELASRCFLVLIQRVAFEKNNYPGYENKRGDGRRCDQPFLLGECSTFKFRFSRVAKELYAEKVRSREVKERESMYPEAILNKQPVSFDHRYRLQTEFEAIAGTITLGKSKILWLSQEKGHLHWIFVTTKNVDVYSSKIPESPERHRLLCQDFPVQASQEPLSEYSNRWSGVSREIYNWEVRRMSTSTSFPHPYTGESQERSLSRQSNLITHPPQHW”, the protein production entry is listed as “failed”.

In the case of “MAMWVFGYGSLIWKTGFPFDESLPGFIKGYRRVFHQGSTDHRGTPDFPGRTVTLEAAHEEHLEVREKQYDQKEYLDFFTDSNASEPAVAGVMVYIASPDKKSNNNYLGPAPLEDIAKQIVKAKGPSGPNRDYLFNLEEALAQLGFKDKHVTDLANQVRHILSESEELDIDATAATANNV”, the protein production result is listed as “failed”.

As for “MANDKRTSPPTPRQPAKGGAAGKRQGHAAEGTRKPRARGEERKEKPADGRSATALTANERREIDDKQPPRAAVLHEVIRVQGEHELQRTLAALWWSAVAAGLTIGLSLMGMGLFRAALPEQEWAIIVSSFGYPMGFLAVILARQQLFTENTLTAVLPVMTEPTLEKAWQLLRLWSVVLFGNIVGTLLFAWAVLHLPIFNEAADAAFLEIGREVMHNDLAQMFAKGIVSGWMIATMVWLIPAAEGAKIWIIAMVTYLMALGSFTHIVVGSAEVGYLAFAGEIGWAEFLLKFALPTLGGNIVGGSLIFALISHAQIRSEG”, the protein production entry is listed as “failed”.

As to “MANDPRHLPSRKLLVTCALPYANGSIHLGHMLEHIQADIWVRYQRLRGNTVNFICADDAHGTPIMLKAQQMGITPEEMIAAVSEEHQKDFAGFDISFDNYHSTHSEENRELASHIYLELKKNGFISSRTISQLFDPEKEMFLPDRFVKGTCPKCKSEDQYGDNCDNCGETYSPTELINPKSAVSGATPVMKDSEHFFFDLPQFESMLKEWTRSGSLQSETANKMQEWFESGLQQWDISRDAPYFGFEIPGEKDKFFYVWLDAPIGYMGSFKNLCNKRDDLDFDEYWNKDSKTELYHFIGKDIVYFHSLFWPAMLEGSGFRKPNNVFVHGYVTVNGAKMSKSKGTFVKASTYLDHLDPECLRYYYAAKLNSRIDDLDLNLEDFTQRVNADVVNKIVNLASRNAGFIAKRFEGKLSDNFAEPELYNEFVAAADRIAELFEAREFGRAIREITALADKANQYVDEKAPWVVAKEEGKDQELQEICSVGINLFRVLMTYLKPVMPALAARTEAFLNQELTWEGIAQPLTGHEITKFKALFNRIDPKNIEAMIEASKEDAAAEMAAKEKAEAAKTETELSKDPIADEIEFDTFAQVDLRIARIISCEEVPKANKLLKFQLDIGGETRQVFSGIKSAYKPEELEGKLTVMVANLKPRKMKFGMSEGMILAAGPGGSDLWILEPHEGAQPGMRVM”, the protein production result is recorded as “failed”.

Take “MANIEIRQETPTAFYIKVHDTDNVAIIVNDNGLKAGTRFPDGLELIEHIPQGHKVALLDIPANGEIIRYGEVIGYAVRAIPRGSWIDESMVVLPEA”: the protein production entry was “not failed”.

As for “MANIKIRQETPTAFYIKVHDTDNVAIIVNDNGLKAGTRFPDGLELIEHIPQGHKVALLDIPANGEIIRYGEVIGYAVRAIPRGSWIDESMVVLPEA”, the protein production result was “not failed”.

As for “MANKEKLPWDLEEEILSRVPPTSLDRFKTVCKRWNALFNDKTFINNHKMTFQFVLSTRSKIYSVSVNPKVEVRELTLNNPGLKAQRHKNLFATSGLLLCDVGNGAVVWNPWLKQSRCIKLEVNEPSLDFLGIGYDNNKRVEEIVYKTLSVYMKDLGSQYTWKIHDFASDTWIDQEIEKTKYSRRITEGSVTIRLTNLSVVSLNGKFFKFCDLPSGKNRRRDALALRVFREDRFSLLRQCHVTKKIKIWVTKNKIDNRYGGDVKWMSFMEVSIPTMPDLEHPKFNSQPSYFIDDKRLVICSCDETGRAWIYVVGGNKLVSKTQLDSVVDPWPLHCTYFPSLVLVPGGQREEAELQEAKNLHVTTELYVPGKTKSSIKLHYG”, the protein production entry is reported as “failed”.

In the case of “MANKENTSDEGLRVSYDVKTYHEQKYIDYTLRLREILKTLPSFAKDYFRAIEPTTSANTRISYAYDIRVFFRFLMENNPVYKNYTIDQFTLADIENLEPVDIEEYQEYLKVYKNDEKQVTNTEKGLARKMSALRSFYGYYFKRQAISKNPTLLVDMPKLHEKAIIRLDADEVVRLLDYVDHGGDHLTGQKKAYFEKTRNRDLAILTLLLGTGIRVSECVGLDINDVDFENNGIKVMRKGGNEMIVYFGEEVENALKTYMYTTRRTTLPLPGHENALFLSTQRKRMGVQAIENMVKKYAREVTPNKKITPHKLRSTYGTSLYKETGDIYLVADVLGHKDVNTTKKHYAAIDEDRRRQAANIVKLREV”, the protein production entry is “failed”.

As for “MANNTTGFTRIIKAAGYSWKGLRAAWINEAAFRQEGVAVLLAVVIACWLDVDAITRVLLISSVMLVMIVEILNSAIEAVVDRIGSEYHELSGRAKDMGSAAVLIAIIVAVITWCILLWSHFG”, the protein production entry is listed as “failed”.

Consider “MANRLRTGIDVLDRKLDGGIPAGSIVVLSAQPASQAELFLYELTATRGTLWLSLDRTAESVIASIEQTPANTGDPTVRHISGEAPLDNAGKLVSALPETSNLIVDPLDVLEAQEPHSRFRAFMNDLQNHIVNTGSLAIVHCLDGRDVPPLRDTTEHFADVVFQLNTTTNGDEVENRLAIPKFRGGRAPTDIIKLNLVEEVSIDTSRDIALEHHHHHH”, for which the protein production result is “failed”.

As for “MANSASPEQNQNHCSAINNSIPLMQGNLPTLTLSGKIRVTVTFFLFLLSATFNASFLLKLQKWTQKKEKGKKLSRMKLLLKHLTLANLLETLIVMPLDGMWNITVQWYAGELLCKVLSYLKLFSMYAPAFMMVVISLDRSLAITRPLALKSNSKVGQSMVGLAWILSSVFAGPQLYIFRMIHLADSSGQTKVFSQCVTHCSFSQWWHQAFYNFFTFSCLFIIPLFIMLICNAKIIFTLTRVLHQDPHELQLNQSKNNIPRARLKTLKMTVAFATSFTVCWTPYYVLGIWYWFDPEMLNRLSDPVNHFFFLFAFLNPCFDPLIYGYFSL”, the protein production result is “not failed”.

For “MANVLVINFPGEGHINPTLAIISELIRRGETVVSYCIEDYRKKIEATGAEFREFENFLSQINIMERVNEGGSPLTMLSHMIEASERIVTQIVEETKGEQYDYLLYDNHFPVGRIIANVLQLPSISSCTTFAFNQYITFNDEQESRQVDETNPLYQSCLAGMEKWNRQYGMKCNSMYDIMNHPGDITIVYTSKEYQPRSDVFDESYKFVGPSIATRKEVGSFPMEDLKGEKLIFISMGTVFNEQPELYEKCFEAFKGVEATVILAVGKKINISQFENIPNNFKLYNYVPQLEVLQHADVFVTHGGMNSSSEALYYGVPLVVIPVTGDQPLVAKRVNEVGAGIRLNRKELTSELLRETVKEVMYDVTFKENSRKVGESLRNAGGYKRAVDEIFKMKMNSYLKLK”, the protein production entry is “failed”.

Regarding “MANVSMEAKGLLILGFPIAATMIAQTLMSLTDLMLVSRLGEKQVAGVSLGIAVYSFGMLFGLGVITAVTPMIAKAYGRKDFNAVSNYTRQGLWVAALVAMPGVIALILTRSILLFLNVEAETANIASDYCVGALMGLPAFLIYVNLRCFLSAIGRPKTTTWIMFLAVPVNYIIGHVLIFGVMDAEGLGITGAGLASSVTRLAILSTVIATLKYGADFKCFSLFENVMNVKPVVVKKIVLLGLPVGVRILLAEGMLPIIALLISTLGTIDLVAHMVAVRLSGVSAVIALGFSSAASTRVAWQVAANNQNGVRVTGYVASALAFGVSALLAMLLIFFPTELVMLLFDIDDAEVLALTSHLLKVVAAYQILNAIQTAVVGSLLGVSDTKIPTCLVLIGNWLVGLASAYGLVVLFEATVTAVWGGLVLGQVFVVVTCLCRFHMKTKALHE”, the protein production entry was “failed”.

For the sequence “MAPARLRADTGSGEPIIHSTLLYILLAATISGVGSIFGAALLSLTVASRVVERMVSFSVGVLLATALLHSLPEAFESGADTRALFGTLLAGLLGFFLLEKISLLRHSHHHEGDGHHHHHGHDREEAGRSGLTILVGDTFHNFADGIVIAAAFLANPHIGIVTALAIAAHEIPQEVGDFIVLLNAGFSKARAFAFNLLSSLAAIIGGLVGYFLLDQLTGWIPYVLVIASSSFLYIAVSDLMPQMQRKPRLKESAVQVVLVAAGIAAIVFITNGVHEQHGHRHSRTAAGVTSN”, the protein production entry was “failed”.

In the case of “MAPEPLSAAGQNLIDTATSVINGIPVSDFYSVASAAISDDGRVFSGVNVYHFNGGPCAELVVLGVAAAAGATKLTHIVAIANEGRGILSPCGRCRQVLADLHPGIKAIVIGKEGPKMVAVEELLPSIYAWDKDYDRI”, the protein production result is “not failed”.

“MAPIFLEYKVVHDNITYYIIYVFIYNLSLKLVTMYTINPSSHTILNYNVSLEPEQIFSNITGVSTYYSLDGKKILAYEDNNGSIIVAYNGLILKKASNNSVRYLIAANYPGIDNSKFPSLYKLAEISIFDSNIRVLVLGVLLTILSSFILKVMVGRYDKVR”: the protein production entry was “failed”.

“MAPKPVAVDAGHYRGTWLEIGRMPMLLTDGCVAGYSTYRQGKSADEVLVEDGCREGTPQGKLKTINGVGKIEDFASTKAKMRVRYPLLITFNYWVLYKSPDKSWFISANPSTEDVWVYARSVPSKAKLNRMMMKVRELGYDVKKLEFPLEHHHHHH”: the protein production result was “not failed”.

For “MAPLQTPLCSEIGIDHPVVQAPVGSVSTPSLAAAVADAGGLGMLAMSWREADAIRDAYTDAANATDGVVGVNVVLDESTGVLSPSACLDACLDAGAPVVSFSFGDAGPYIDRVHEVGGTVMVTVASAAEARAAVDAGADVVVAQGREAGGHVQSDVTTMSLLPRVADGVPVPVVAAGGLGDGRGLAAALTLDADGGWFGTRFVATEESGAHEAYRQQIVDAPETATRFTDLFDRGWPDQPHRVLETDEVRQQAGADSGGESDGSDPEQIAQMPDGEPISRFADMPPLAGMTGDVEALPHYAGQSTGLAQDVRPAGEVVARLVSDARAALADASAAAE”, the protein production entry is listed as “failed”.

Consider “MAPPTPHLAVRGSDGTLLLHGPPNCQESSAFQRDDRQGRYMTFSNDGTLFAWCNGSQVTVLKVPSGDLVKSFDLPKTTALEFSPLNKVLATWQQYTKTQDNPQGEANLQLWDLQTGACMKAFYQKKMTGWCPSWADDESISVRNVNNELHFFENNNFETIANKLHLQKVSEFALSPGSQPSKVAVYVPGSKGAPSFVRLYQYPNFGGPTCALANKSFFKADKVNMLWNKKATAVLVTASTEVDKTGASYYGEQTLHYVATNGESAVVQLPKNGPIYDVSWSPNSTEFCVVYGFMPAKATVFNNKCESVFDFGTGPRNAAFYSPQGHILVLAGFGNLRGQMEVWDVKKYKQVSKPQAEDTTHFSWCPDGEHIVTATCSPRLRASNGYKIWHYTGTVLYKHETPSGKELWEVLWQPFPAGVFPERAVKYQALPSELGSTEAKPAQAYRPPALRNKPQTASSKLHEEEPPQNMKPGAAGEKQPSKAALKNQKRREAKKAAKQENKPDEAPPPAADPAPVSHVTSSCGDPETDKKIKNLKKKLKAIDELKEQQAAGKVMQKNQLEKMQKEAQLLKELEDLELGL”, for which the protein production entry is reported as “not failed”.

Consider “MAPQPVIRSKQAEKTINGNQTQVVCTEFSNYIFIVLTQYGKIGTLVSITPDTRSGDISVPMYTSKVLLGKDEPLTHVYAKNVATFVSQESGNRPILLGLSLKDNSAETMKTVKDMIKSCQVW”, for which the protein production entry is given as “failed”.
